Experiments:
[1] = target: EGFR (endogenous, from control HNSCC cells) (human (endogenous in SAS and OEC-M1)) (UniProt P00533); test: ELISA; ligand-binding assay: 100 µg lysate of SAS cells (siCtr or siC1GALT1-2, 72 h) incubated 18 h on plates coated with anti-EGFR antibody; biotin-EGF at different concentrations, 37 °C, 3 h; streptavidin-HRP, O.D. 490 nm; Kd estimated from Scatchard plot
[2] = target: EGFR from C1GALT1 knockdown HNSCC cells (human (endogenous in SAS and OEC-M1)) (UniProt P00533); test: as above
[3] = target: EGFR (endogenous, from control HNSCC cells) (human (endogenous in SAS and OEC-M1)) (UniProt P00533); test: ELISA; ligand-binding assay: 100 µg lysate of OEC-M1 cells (siCtr or siC1GALT1-2, 72 h) incubated 18 h on plates coated with anti-EGFR antibody; biotin-EGF at different concentrations, 37 °C, 3 h; streptavidin-HRP, O.D. 490 nm; Kd estimated from Scatchard plot
[4] = target: EGFR from C1GALT1 knockdown HNSCC cells (human (endogenous in SAS and OEC-M1)) (UniProt P00533); test: as above
[5] = target: C1GALT1 (Core 1 β1,3-galactosyltransferase) (Homo sapiens, UniProt Q9NS00); test: cellular thermal shift assay (CETSA, western blot) in SAS and OEC-M1 cells; destabilization, dose-dependent; assay type: cell-based
Chain of C1GALT1 (Core 1 β1,3-galactosyltransferase) (Q9NS00 whole entry): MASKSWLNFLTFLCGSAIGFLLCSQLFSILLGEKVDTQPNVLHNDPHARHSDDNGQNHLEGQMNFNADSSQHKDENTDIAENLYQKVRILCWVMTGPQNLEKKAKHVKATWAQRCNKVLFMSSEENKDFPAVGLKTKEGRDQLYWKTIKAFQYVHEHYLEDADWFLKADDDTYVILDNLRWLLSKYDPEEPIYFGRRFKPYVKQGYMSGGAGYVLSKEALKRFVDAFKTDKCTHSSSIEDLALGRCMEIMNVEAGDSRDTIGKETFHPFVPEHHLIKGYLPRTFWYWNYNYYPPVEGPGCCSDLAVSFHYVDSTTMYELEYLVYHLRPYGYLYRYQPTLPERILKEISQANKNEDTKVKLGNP

Molecule	Kd [1] [nM]	Kd [2] [nM]	Kd [3] [nM]	Kd [4] [nM]	cellular thermal shift assay (CETSA, western blot) in SAS and OEC-M1 cells; dest [5]
Biotin-EGF (ligand)	32	42.3	26.1	58.8	–
CCC(C)n1ncn(-c2ccc(N3CCN(c4ccc(OCC5COC(Cn6cncn6)(c6ccc(Cl)cc6Cl)O5)cc4)CC3)cc2)c1=O (centres unmarked) [ITZ, itraconazole]	–	–	–	–	melting temperature of C1GALT1 was decreased when SAS and OEC-M1 cells were treated with itraconazole

Reference: publication PMC6202324, “C1GALT1 predicts poor prognosis and is a potential therapeutic target in head and neck cancer” (Oncogene, 2018)
